Test results published in PMC6962393, “Targeting the tumor vasculature with engineered cystine-knot miniproteins” (Nature Communications, 2020).
Where a chain is given by its changes, count along the chain named. In names and notes the source's numbering stands. One block for each binder: values may come before it.

What was measured:
Experiment in all cases: ELISA
ELISA = substrate: FN-B, recombinant human fibronectin extra domain B (EDB) as a single domain; settings: chain shown with the change; pre-coated human FN-B; detection with HRP-conjugated anti-S-tag antibody; parent: est. 100; read off a plot
[1] = molecular target: FN-6789, human fibronectin type III domains 6–9 without EDB; settings: chain shown with the change, FN-6789 coated 1 µg/well, read off a plot
[2] = molecular target: FN-67B89, human fibronectin EDB flanked by its surrounding type III domains; settings: chain shown with the change, FN-67B89 coated 1 µg/well, read off a plot
FN-67B89, human fibronectin EDB flanked by its surrounding type III domains, sequence (chain, as listed by the source): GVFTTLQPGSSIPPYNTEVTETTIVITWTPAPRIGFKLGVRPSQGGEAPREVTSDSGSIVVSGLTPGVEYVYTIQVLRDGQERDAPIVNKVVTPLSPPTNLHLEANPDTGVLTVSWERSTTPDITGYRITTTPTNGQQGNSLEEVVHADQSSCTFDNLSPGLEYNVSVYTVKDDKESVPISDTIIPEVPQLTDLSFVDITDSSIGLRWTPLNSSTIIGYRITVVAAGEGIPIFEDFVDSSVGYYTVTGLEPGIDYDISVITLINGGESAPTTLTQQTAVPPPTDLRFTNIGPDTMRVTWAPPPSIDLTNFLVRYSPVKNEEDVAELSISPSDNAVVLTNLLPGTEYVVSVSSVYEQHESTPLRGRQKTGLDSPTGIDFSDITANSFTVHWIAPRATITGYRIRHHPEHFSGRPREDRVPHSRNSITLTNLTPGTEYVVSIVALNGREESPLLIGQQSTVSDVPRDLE

FN-B, recombinant human fibronectin extra domain B (EDB) as a single domain, sequence (chain, as listed by the source): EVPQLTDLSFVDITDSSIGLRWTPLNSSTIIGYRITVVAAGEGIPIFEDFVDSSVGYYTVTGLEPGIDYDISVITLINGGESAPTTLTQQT
FN-6789, human fibronectin type III domains 6–9 without EDB, sequence (chain, as listed by the source): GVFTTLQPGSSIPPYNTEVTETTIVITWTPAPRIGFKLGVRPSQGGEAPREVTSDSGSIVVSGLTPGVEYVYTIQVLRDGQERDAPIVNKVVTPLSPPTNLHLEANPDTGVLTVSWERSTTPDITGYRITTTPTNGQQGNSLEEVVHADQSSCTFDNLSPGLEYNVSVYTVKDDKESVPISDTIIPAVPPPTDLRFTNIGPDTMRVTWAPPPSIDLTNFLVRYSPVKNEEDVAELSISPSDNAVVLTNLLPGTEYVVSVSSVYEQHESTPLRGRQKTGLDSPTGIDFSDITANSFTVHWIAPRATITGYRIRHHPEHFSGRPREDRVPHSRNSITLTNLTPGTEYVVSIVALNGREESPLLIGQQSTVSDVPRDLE

B1: Trx-MC-FN-010, Thioredoxin-A fusion of cystine-knot miniprotein MC-FN-010 P1A (peptide)
chain: AMCTQRKNRIRLCRRDSDCTGACICRGNGYCG
percent of parent (ELISA): 130%

B6: Trx-MC-FN-010, Thioredoxin-A fusion of cystine-knot miniprotein MC-FN-010 K7A (peptide)
chain: B1 chain with A1P, K7A
percent of parent (ELISA): 320%
response (Absorbance (450 nm)) ([1]; 25 nM Trx-miniprotein, parent: est. 0.30): 0.09
response (Absorbance (450 nm)) ([1]; 50 nM Trx-miniprotein, parent: est. 0.62): 0.13
response (Absorbance (450 nm)) ([2]; 1.56 nM Trx-miniprotein, parent: est. 0.70): 0.62
response (Absorbance (450 nm)) ([2]; 3.13 nM Trx-miniprotein, parent: est. 1.5): 1.1
response (Absorbance (450 nm)) ([2]; 6.25 nM Trx-miniprotein, parent: est. 2.2): 1.7
response (Absorbance (450 nm)) ([2]; 12.5 nM Trx-miniprotein, parent: est. 3.0): 2.4
response (Absorbance (450 nm)) ([2]; 25 nM Trx-miniprotein, parent: est. 3.4): 2.9
response (Absorbance (450 nm)) ([2]; 50 nM Trx-miniprotein, parent: est. 3.7): 3.1

B7: Trx-MC-FN-010, Thioredoxin-A fusion of cystine-knot miniprotein MC-FN-010 M2A (peptide)
chain: B1 chain with A1P, M2A
percent of parent (ELISA): 100%

B8: Trx-MC-FN-010, Thioredoxin-A fusion of cystine-knot miniprotein MC-FN-010 Q5A (peptide)
chain: B1 chain with A1P, Q5A
percent of parent (ELISA): 65%

B10: Trx-MC-FN-010, Thioredoxin-A fusion of cystine-knot miniprotein MC-FN-010 N8A (peptide)
chain: B1 chain with A1P, N8A
percent of parent (ELISA): 88%

The remaining lines, values ahead:

percent of parent (ELISA): 100%
B2: Trx-MC-FN-010, Thioredoxin-A fusion of cystine-knot miniprotein MC-FN-010 T4A (peptide)
chain: B1 chain with A1P, T4A

percent of parent (ELISA): 83%
B3: Trx-MC-FN-010, Thioredoxin-A fusion of cystine-knot miniprotein MC-FN-010 R6A (peptide)
chain: B1 chain with A1P, R6A

percent of parent (ELISA): 5%
B4: Trx-MC-FN-010, Thioredoxin-A fusion of cystine-knot miniprotein MC-FN-010 R9A (peptide)
chain: B1 chain with A1P, R9A

percent of parent (ELISA): 71%
B5: Trx-MC-FN-010, Thioredoxin-A fusion of cystine-knot miniprotein MC-FN-010 R14A (peptide)
chain: B1 chain with A1P, R14A

percent of parent (ELISA): 61%
B9: Trx-MC-FN-010, Thioredoxin-A fusion of cystine-knot miniprotein MC-FN-010 R15A (peptide)
chain: B1 chain with A1P, R15A
